Data taken from US20220090139A1.
Where two headings read alike, the source gives them in different places.

What was measured:
[1] = molecular target: 10-amber 13-amber hoc-del soc-del T4 heads (bacteriophage T4) (UniProt P04535); test: co-display with Cre-Hoc on the same T4 head
[2] = molecular target: 10-amber 13-amber hoc-del soc-del T4 heads (bacteriophage T4) (UniProt P04535); test: display of RNP on T4 heads through Soc
[3] = molecular target: 10-amber 13-amber hoc-del soc-del T4 heads (bacteriophage T4) (UniProt P04535); test: in vitro display on T4 heads, pelleting, SDS-PAGE densitometry against gp23* (930 copies)
[4] = molecular target: 10-amber 13-amber hoc-del soc-del T4 heads (bacteriophage T4) (UniProt P04535)
[5] = molecular target: 10-amber 13-amber hoc-del soc-del T4 heads (bacteriophage T4) (UniProt P04535); test: display titration on T4 heads, SDS-PAGE (FIG. 21)
[6] = molecular target: 10-amber 13-amber hoc-del soc-del T4 heads (bacteriophage T4) (UniProt P04535); test: co-display with Cas9-gRNA RNP on the same T4 head
[7] = molecular target: 10-amber 13-amber hoc-del soc-del T4 heads (bacteriophage T4) (UniProt P04535); test: display on T4 heads, copies per capsid compared
[8] = molecular target: 10-amber 13-amber hoc-del soc-del T4 heads (bacteriophage T4) (UniProt P04535); test: Soc-TAT displayed on T4(Luci) heads used for transduction (FIG. 28)
[9] = molecular target: 10-amber 13-amber hoc-del soc-del T4 heads (bacteriophage T4) (UniProt P04535); test: display titration on T4 heads, SDS-PAGE (FIG. 20)

| Substance | Copies/capsid (copies per capsid) [4] | further results |
| --- | --- | --- |
| Cas9-gRNA ribonucleoprotein (RNP) complex fused to Soc (from UniProt Q99ZW2 1-1368) |  | copies per capsid (molecules per AV) [1]: 270; copies per capsid (copies per capsid) [2]: 280 |
| Cpf1-Soc (enzyme) |  | Copies/capsid (copies per capsid) [3]: 450 |
| Cre-Hoc (enzyme) | 95 | ratio of protein molecules to binding sites at saturation (molecules per binding site) [5]: 15 to 20; copies per capsid (molecules per AV) [6]: 50 |
| Cre-Soc (enzyme) | 630 |  |
| GFP-Soc (from UniProt P03715 1-80) | 660 |  |
| NLS-Cas9-Soc (from UniProt Q99ZW2 1-1368) (enzyme) | 550 |  |
| RGD-Hoc (from UniProt P18056 1-376) | 85 |  |
| Soc-RGD (from UniProt P03715 1-80) | 710 | fold copy number against RGD-Hoc [7]: 8.3 fold |
| Soc-TAT (from UniProt P03715 1-80) | 750 | copies per capsid (copies per capsid) [8]: 520 |
| β-Gal-Soc (from UniProt P00722 1-1024; P03715 1-80) (enzyme) | 320 | ratio of protein molecules to binding sites at saturation (molecules per binding site) [9]: 15 to 20 |
